Starred links: 1 amine or outer side, 2 acyl side, 3 side chain; linkers in the order of their positions; H or OH if unused. Residues, ends and D or L forms follow the SMILES beside them. *: point of attachment. pNA = O=[N+]([O-])c1ccc(N*)cc1; Suc = O=C(CCC(=O)[*:2])[*:1]
Assays:
[1] = molecular target: T1, Bacillus subtilis subtilisin E (subtilisin I168, aprA gene product), wild type, SEQ ID NO: 1 (Bacillus subtilis, UniProt P04189); test: Transesterification of methyl ester to ethyl ester in organic solvents; format: biochemical; conditions: 1M ethanol, 32° C.
T1 construct: each contain 275 residues; made in house; host or cells: Bacillus subtilis DB428 (vector pKWC), secreted into the medium
Experimental: (§1) The activity of the D60N+Q103R+N218S (3M) subtilisin E triple variant was compared to that of the wild-type enzyme for the transesterification of N-acetyl-L-phenylalanine methyl ester to the ethyl ester in three organic solvents. The reactions were carried out in 2 mL volumes of the indicated solvent, containing 1 mg/mL of enzyme, 100 mM N-acetyl-L-phenylalanine methyl ester, 1M ethanol. The samples were incubated, with shaking, at 32° C., and the formation of the ethyl ester product was measured by capillary gas chromatography. Values of the kinetic constants kcat /KM are given in Table VII for the wild-type and 3M variant enzymes. In all three solvents, anhydrous hexane, hexane containing 0.1% water, and acetonitrile containing 0.1% water, the D60N+Q103R+N218S (3M) triple variant was considerably more efficient than the wild-type enzyme.

[2] = molecular target: T2, Bacillus subtilis subtilisin E variant 3M (D60N + Q103R + N218S) (Bacillus subtilis, UniProt P04189, A256V/D166N/N324S/Q209R); test: as above; format: biochemical; conditions: 1M ethanol, 32° C.
T2 construct: each contain 275 residues; made in house; host or cells: Bacillus subtilis DB428 (vector pKWC), secreted into the medium
T2 sequence (P04189 107-381 D166N/Q209R/A256V/N324S): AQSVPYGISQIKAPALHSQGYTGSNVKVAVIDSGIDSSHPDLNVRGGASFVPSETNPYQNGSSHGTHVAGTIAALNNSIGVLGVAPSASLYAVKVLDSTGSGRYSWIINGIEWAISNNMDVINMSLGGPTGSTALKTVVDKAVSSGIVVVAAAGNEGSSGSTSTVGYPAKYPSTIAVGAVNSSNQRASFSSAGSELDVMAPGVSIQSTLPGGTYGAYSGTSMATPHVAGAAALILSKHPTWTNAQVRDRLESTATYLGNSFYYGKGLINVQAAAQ
Experimental: as §1

[3] = molecular target: T3, Bacillus subtilis subtilisin E variant Q103R (Bacillus subtilis, UniProt P04189, A256V/Q209R); test: Amidase activity: hydrolysis of p-nitroanilide peptide substrates; format: biochemical; conditions: 0.1M Tris-HCl, 10 mM CaCl2, pH 8, 37° C.
T3 construct: each contain 275 residues; made in house; host or cells: Bacillus subtilis DB428 (vector pKWC), secreted into the medium
T3 sequence (P04189 107-381 Q209R/A256V): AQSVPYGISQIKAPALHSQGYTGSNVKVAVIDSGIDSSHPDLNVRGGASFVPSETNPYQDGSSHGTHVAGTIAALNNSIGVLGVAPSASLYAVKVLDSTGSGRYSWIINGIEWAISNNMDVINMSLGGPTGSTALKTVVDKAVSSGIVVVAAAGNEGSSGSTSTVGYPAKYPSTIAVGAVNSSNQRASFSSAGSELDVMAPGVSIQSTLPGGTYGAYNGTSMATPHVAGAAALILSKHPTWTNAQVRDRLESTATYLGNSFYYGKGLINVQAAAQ
Experimental: (§2) The amidase activities of subtilisin and derivatives thereof were measured on the substrate succinyl-Ala-Ala-Pro-Phe-p-nitroanilide (sAAPF-pna) at 37° C. in 0.1M Tris-HCl, pH 8.0 and 10 mM CaCl2. Assays were initiated by mixing the enzyme, the substrate and the reaction buffer. The amount of released p-nitroaniline was measured spectrophotometrically at 410 nm as a function of time. KM and kcat values for hydrolysis of sAAPF-pna by the subtilisin variants were obtained by nonlinear regression of the data using the program Enzfitter (Biosoft).
(§3) For activity measurements in mixed buffer (containing DMF), a portion of the aqueous buffer was replaced by the percentage (w/v) of DMF indicated in Table II. Kinetic constants are reported in Table II for the wild-type enzyme and six variants with 3-10 amino acid substitutions in 20% and 40% DMF.
The effects of different amino acid substitutions at position 103 on amidase activity were investigated. The variants Q103E, Q103K, and Q103S were constructed by PCR site-directed mutagenesis as described in Example VIII. The amidase activities of these variants and the variant Q103R identified by random mutagenesis and screening for enhanced activity in the presence of DMF (Example IV) are compared in Table III. The reactions were carried out in 10% DMF according to the procedures outlined in Examples XI and XII.
The effects of the Q103R amino acid substitution on amidase activity were investigated for two substrates, succinyl-Ala-Ala-Pro-Phe-p-nitroanilide (negatively-charged succinyl group at the peptide N-terminus) and Ala-Ala-Pro-Phe-p-nitroanilide (positively charged N-terminus) in 10% DMF.

[4] = substrate: C[C@H](NC(=O)CCC(=O)O)C(=O)N[C@@H](C)C(=O)N1CCC[C@H]1C(=O)N[C@@H](Cc1ccccc1)C(=O)Nc1ccc([N+](=O)[O-])cc1; test: as above; format: biochemical, Bacillus subtilis; conditions: other: 0% DMF, 0.1M Tris-HCl, 10 mM CaCl2, pH 8, 37° C.
Experimental: as §2, §3

[5] = substrate: C[C@H](N)C(=O)N[C@@H](C)C(=O)N1CCC[C@H]1C(=O)N[C@@H](Cc1ccccc1)C(=O)Nc1ccc([N+](=O)[O-])cc1; test: as above; format: biochemical, Bacillus subtilis; conditions: other: 10% DMF (Table IV), 0.1M Tris-HCl, 10 mM CaCl2, pH 8, 37° C.
[6] = substrate: C[C@H](NC(=O)CCC(=O)O)C(=O)N[C@@H](C)C(=O)N1CCC[C@H]1C(=O)N[C@@H](Cc1ccccc1)C(=O)Nc1ccc([N+](=O)[O-])cc1; test: as above; format: biochemical, Bacillus subtilis; conditions: 0.1M Tris-HCl, 10 mM CaCl2, pH 8, 37° C.
[7] = substrate: C[C@H](NC(=O)CCC(=O)O)C(=O)N[C@@H](C)C(=O)N1CCC[C@H]1C(=O)N[C@@H](Cc1ccccc1)C(=O)Nc1ccc([N+](=O)[O-])cc1; test: Amidase activity: hydrolysis of p-nitroanilide peptide substrate; format: biochemical, Bacillus subtilis; conditions: other: 0% DMF, 0.1M Tris-HCl, 10 mM CaCl2, pH 8, 37° C.
Experimental: as §2, §3

**Q.** How did the “kcat /KM” value ([1]; Ch3 CN (0.1% water)) turn out when `COC(=O)[C@H](Cc1ccccc1)NC(C)=O` [N-acetyl-L-phenylalanine methyl ester] was run?
**A.** 0.3 Min^-1 mg^-1 × 10^-3

**Q.** And the “kcat /KM” value ([1]; hexane (0.1% water))?
**A.** 5 Min^-1 mg^-1 × 10^-3

**Q.** And the “kcat /KM” value ([1]; hexane (anhydrous))?
**A.** 0.4 Min^-1 mg^-1 × 10^-3

**Q.** And the “kcat /KM” value ([2]; Ch3 CN (0.1% water))?
**A.** 3.1 Min^-1 mg^-1 × 10^-3

**Q.** And the “kcat /KM” value ([2]; hexane (0.1% water))?
**A.** 220 Min^-1 mg^-1 × 10^-3

**Q.** What about the “kcat /KM” value ([2]; hexane (anhydrous)) of the same molecule?
**A.** 17 Min^-1 mg^-1 × 10^-3

**Q.** What does the source list for `C[C@H](N)C(=O)N[C@@H](C)C(=O)N1CCC[C@H]1C(=O)N[C@@H](Cc1ccccc1)C(=O)Nc1ccc([N+](=O)[O-])cc1` [AAPFpna, Ala-Ala-Pro-Phe-p-nitroanilide] (H-AAPF-pNA)?
**A.** Km ([3]; 10% DMF (Table IV)): ≥ 37000 µM; kcat ([3]; 10% DMF (Table IV)): ≥ 2.6 s⁻¹; kcat /KM ([3]; 10% DMF (Table IV)): 0.07 M^-1 s^-1 × 10^3

**Q.** For `C[C@H](NC(=O)CCC(=O)O)C(=O)N[C@@H](C)C(=O)N1CCC[C@H]1C(=O)N[C@@H](Cc1ccccc1)C(=O)Nc1ccc([N+](=O)[O-])cc1` [succinyl-Ala-Ala-Pro-Phe-p-nitroanilide] (Suc-AAPF-pNA), which “kcat /KM” value ([3]; 20% DMF) is on record?
**A.** 6.8 M^-1 s^-1 × 10^-3

B1: Bacillus subtilis subtilisin E (subtilisin I168, aprA gene product), wild type, SEQ ID NO: 1 (Bacillus subtilis subsp. subtilis str. 168) (protein)
chain: AQSVPYGISQIKAPALHSQGYTGSNVKVAVIDSGIDSSHPDLNVRGGASFVPSETNPYQDGSSHGTHVAGTIAALNNSIGVLGVAPSASLYAVKVLDSTGSGQYSWIINGIEWAISNNMDVINMSLGGPTGSTALKTVVDKAVSSGIVVAAAAGNEGSSGSTSTVGYPAKYPSTIAVGAVNSSNQRASFSSAGSELDVMAPGVSIQSTLPGGTYGAYNGTSMATPHVAGAAALILSKHPTWTNAQVRDRLESTATYLGNSFYYGKGLINVQAAAQ
notes: each contain 275 residues; made in house; host or cells: Bacillus subtilis DB428 (vector pKWC), secreted into the medium
**Q.** Which results are given for B1?
**A.** Km [4]: 560 µM; kcat [4]: 21 s⁻¹; kcat/Km [4]: 38 M^-1 s^-1 × 10^3; Km [5]: 7800 µM; kcat [5]: 0.83 s⁻¹; kcat/Km [5]: 0.11 M^-1 s^-1 × 10^3; Km ([6]; other: 10% DMF (Table III)): 2900 µM; kcat ([6]; other: 10% DMF (Table III)): 20 s⁻¹; kcat/Km ([6]; other: 10% DMF (Table III)): 7.0 M^-1 s^-1 × 10^3; Km ([6]; other: 10% DMF (Table IV)): 510 µM; kcat ([6]; other: 10% DMF (Table IV)): 21 s⁻¹; kcat/Km ([6]; other: 10% DMF (Table IV)): 41 M^-1 s^-1 × 10^3

B2: Bacillus subtilis subtilisin E variant 6M (D60N + Q103R + N218S + D97G + E156G + N181S) (Bacillus subtilis subsp. subtilis str. 168; … (protein)
chain: AQSVPYGISQIKAPALHSQGYTGSNVKVAVIDSGIDSSHPDLNVRGGASFVPSETNPYQNGSSHGTHVAGTIAALNNSIGVLGVAPSASLYAVKVLGSTGSGRYSWIINGIEWAISNNMDVINMSLGGPTGSTALKTVVDKAVSSGIVVVAAAGNGGSSGSTSTVGYPAKYPSTIAVGAVSSSNQRASFSSAGSELDVMAPGVSIQSTLPGGTYGAYSGTSMATPHVAGAAALILSKHPTWTNAQVRDRLESTATYLGNSFYYGKGLINVQAAAQ
**Q.** B2 was tested. Which Km [7] did it give?
**A.** 40 µM

**Q.** What about the kcat [7] of the same molecule?
**A.** 12 s⁻¹

**Q.** What about the kcat/Km [7] of the same molecule?
**A.** 268 M^-1 s^-1 × 10^3

Source: patent US5316935A, “Subtilisin variants suitable for hydrolysis and synthesis in organic media” (California Institute of Technology, priority 1992, dated 1994)
